Square brackets hold non-standard residues; d marks the D form. Ends that are not written are not given here.

Sequences and labels used below:
B1: Ac-cGrrrGr-NH2 (peptide)
peptide: XGXXXGX
modifications: N-terminal acetyl; C-terminal amide; D-amino acids except Gly 2 and Gly 6
B2: Ac-cArrrAr-NH2 (peptide)
peptide: XAXXXAX
modifications: N-terminal acetyl; C-terminal amide; D-amino acids except L-Ala 2 and L-Ala 6
B3: Ac-CaRrRaR-NH2 (peptide)
peptide: CXRXRXR
modifications: N-terminal acetyl; C-terminal amide; L-Cys 1, D-Ala 2, L-Arg 3, D-Arg 4, L-Arg 5, D-Ala 6, L-Arg 7
B4: Ac-crrrr-NH2 (peptide)
peptide: XXXXX
modifications: N-terminal acetyl; C-terminal amide; all residues D-amino acids
B5: Ac-c(C)arrrar-NH2 (peptide)
peptide: XXXXXXX
modifications: N-terminal acetyl; C-terminal amide; all seven residues D-amino acids; D-Cys 1 linked by a disulfide bond to an L-Cys residue
B6: crrrrrr-NH2 (peptide)
peptide: XXXXXXX
modifications: no N-terminal cap; C-terminal amide; all residues D-amino acids
B7: (SEQ ID NO: 45) (SEQ ID NO: 47) conjugate, structure given only as drawing CHEM-US-00001 (peptide)
peptide 1: CHDAPIGYD
peptide 2: CYGRKKRRQRRR
modifications: cysteine pairing not given here; also: further groups not given here
B8: c(C)arrrar-NH2 (peptide)
peptide: XXXXXXX
modifications: no N-terminal cap; C-terminal amide; all seven residues D-amino acids; D-Cys 1 linked to an L-Cys residue
B9: Ac-cygrkkrrqrrr-NH2 (peptide)
peptide: XXXXXXXXXXXX
modifications: N-terminal acetyl; C-terminal amide; printed in lower case (D-amino acids; glycine is achiral)
B10: Ac-bAla-crrrrrr-NH2 (peptide)
peptide: XXXXXXXX
modifications: N-terminal acetylated beta-alanine; C-terminal amide; Cys and Arg residues are D-amino acids
B11: Ac-YGRKKRRQRRR-NH2 (peptide)
peptide: Ac-YGRKKRRQRRR-NH2
B12: Ac-carrrar-OH (peptide)
peptide: XXXXXXX
modifications: N-terminal acetyl; free C-terminal acid (-OH); all residues D-amino acids
B13: Ac-CYGRKKRRQRRR-NH2 (peptide)
peptide: Ac-CYGRKKRRQRRR-NH2
B14: Ac-c(PEG5-C)rrrrrr-NH2 (peptide)
peptide: XXXXXXX
modifications: N-terminal acetyl; C-terminal amide; all residues D-amino acids; L-Cys carrying a 5 kDa polyethylene glycol (PEG5-C) attached to the side chain of D-Cys 1
B15: Ac-c(Ac-C)arrrar-NH2 (peptide)
peptide: XXXXXXX
modifications: not fully specified; N-terminal acetyl; C-terminal amide; all seven residues D-amino acids; N-acetyl-L-Cys attached to the side chain of D-Cys 1
B16: Ac-c(acetyl)rrrrrr-NH2 (peptide)
peptide: XXXXXXX
modifications: N-terminal acetyl; C-terminal amide; all residues D-amino acids; acetyl attached to the side chain of D-Cys 1
B17: (SEQ ID NO: 46) (SEQ ID NO: 47) conjugate, structure given only as drawing CHEM-US-00002 (peptide)
peptide 1: CPDYHDAGI
peptide 2: CYGRKKRRQRRR
modifications: cysteine pairing not given here; also: further groups not given here
B18: Ac-caaarrrrrr-NH2 (peptide)
peptide: Ac-[dC][dA][dA][dA][dR][dR][dR][dR][dR][dR]-NH2
SMILES: CC(=O)N[C@H](CS)C(=O)N[C@H](C)C(=O)N[C@H](C)C(=O)N[C@H](C)C(=O)N[C@H](CCCNC(=N)N)C(=O)N[C@H](CCCNC(=N)N)C(=O)N[C@H](CCCNC(=N)N)C(=O)N[C@H](CCCNC(=N)N)C(=O)N[C@H](CCCNC(=N)N)C(=O)N[C@H](CCCNC(=N)N)C(N)=O
B19: Ac-bAla-c(C)arrrar-NH2 (peptide)
peptide: XXXXXXXX
modifications: not fully specified; N-terminal acetylated beta-alanine; C-terminal amide; c, a, r residues D-amino acids; D-Cys linked to an L-Cys residue
B20: Ac-CARRRAR-NH2 (peptide)
peptide: Ac-CARRRAR-NH2
B21: Ac-dHcy rrrrrr-NH2 (peptide)
peptide: XXXXXXX
modifications: N-terminal acetyl; C-terminal amide; residue 1 is D-homocysteine (dHcy); residues 2-7 D-Arg
B22: Ac-C(C)arrrar-NH2 (peptide)
peptide: XXXXXXX
modifications: not fully specified; N-terminal acetyl; C-terminal amide; L-Cys 1 linked by a disulfide bond to an L-Cys residue; residues 2-7 D-amino acids
B23: Ac-c(Benzoyl)rrrrrr-NH2 (peptide)
peptide: XXXXXXX
modifications: N-terminal acetyl; C-terminal amide; all residues D-amino acids; benzoyl attached to the side chain of D-Cys 1
B24: Ac-c(Mpa)arrrar-NH2 (peptide)
peptide: XXXXXXX
modifications: N-terminal acetyl; C-terminal amide; all residues D-amino acids; mercaptopropionic acid (Mpa) attached to the side chain of D-Cys 1
B25: Ac-c(GS)rrrrrr-NH2 (peptide)
peptide: XXXXXXX
modifications: N-terminal acetyl; C-terminal amide; all residues D-amino acids; oxidized glutathione (GS) attached to the side chain of D-Cys 1

In the first assay the target is T1, human calcium-sensing receptor (CaSR) (human, UniProt P41180 20-1078).
T1 sequence (looked up): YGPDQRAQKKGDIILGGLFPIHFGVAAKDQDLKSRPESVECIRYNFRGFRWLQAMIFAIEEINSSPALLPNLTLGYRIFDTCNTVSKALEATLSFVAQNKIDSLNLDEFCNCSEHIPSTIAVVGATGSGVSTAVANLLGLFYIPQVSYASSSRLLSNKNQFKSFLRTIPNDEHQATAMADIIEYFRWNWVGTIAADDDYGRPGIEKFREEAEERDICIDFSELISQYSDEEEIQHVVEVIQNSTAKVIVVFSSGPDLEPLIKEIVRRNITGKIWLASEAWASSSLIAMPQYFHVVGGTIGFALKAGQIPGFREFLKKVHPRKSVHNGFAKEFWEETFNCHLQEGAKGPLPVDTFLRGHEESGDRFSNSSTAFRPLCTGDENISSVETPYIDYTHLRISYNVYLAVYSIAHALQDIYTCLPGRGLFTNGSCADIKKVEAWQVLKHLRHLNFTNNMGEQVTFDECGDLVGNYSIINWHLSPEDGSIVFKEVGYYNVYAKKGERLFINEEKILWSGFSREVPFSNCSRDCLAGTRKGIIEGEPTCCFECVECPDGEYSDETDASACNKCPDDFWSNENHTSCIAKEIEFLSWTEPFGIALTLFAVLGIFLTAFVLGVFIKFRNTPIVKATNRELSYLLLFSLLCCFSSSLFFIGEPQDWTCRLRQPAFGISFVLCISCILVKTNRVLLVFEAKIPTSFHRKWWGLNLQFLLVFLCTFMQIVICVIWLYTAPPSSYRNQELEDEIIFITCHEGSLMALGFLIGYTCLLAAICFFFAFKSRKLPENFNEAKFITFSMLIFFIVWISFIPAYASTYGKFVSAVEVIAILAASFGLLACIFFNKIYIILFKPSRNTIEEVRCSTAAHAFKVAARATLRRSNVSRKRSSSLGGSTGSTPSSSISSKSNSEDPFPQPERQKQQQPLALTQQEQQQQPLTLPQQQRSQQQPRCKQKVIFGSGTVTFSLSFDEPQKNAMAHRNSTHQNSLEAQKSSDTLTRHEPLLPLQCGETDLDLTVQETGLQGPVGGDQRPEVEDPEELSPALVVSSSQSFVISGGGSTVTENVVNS
The experiment in a line: cell-based or functional assay.
Consider B1, for which the “reduction in potency relative to Ac-carrrar-NH2 (SEQ ID NO:26)” value is less than 8 fold.

As for B2, the “decrease in potency relative to Ac-carrrar-NH2 (SEQ ID NO:26)” value was more than 600 fold.

In the case of B3, the “difference in potency relative to Ac-carrrar-NH2 (SEQ ID NO:26)” value is less than 4 fold.

As to B4, the “shift in potency in HEK-293 in vitro cell assay (4 versus 5 arginine subunits)” value is more than 10 fold.

A further assay has as its target T1, human calcium-sensing receptor (CaSR). Briefly: cell-based or functional assay. This is another data set of the same source.
Take B5: the “EC50 (µM), CaSR in vitro assay (IP1 production)” value (from here on “EC50 (µM), CaSR in vitro assay”) was determined as 10 µM.

As to B6, the “EC50 (µM), CaSR in vitro assay” value is 1.1 µM.

On to B7, for which the “EC50 (µM), CaSR in vitro assay” value was 21 µM.

Regarding B8, the “EC50 (µM), CaSR in vitro assay” value came out at 3.1 µM.

As for B9, the “EC50 (µM), CaSR in vitro assay” value came to 2 µM.

For the molecule B10, the “EC50 (µM), CaSR in vitro assay” value was 1 µM.

Consider B2, for which the “EC50 (µM), CaSR in vitro assay” value is more than 1000 µM.

Consider B11, for which the “EC50 (µM), CaSR in vitro assay” value came to 16 µM.

As for B12, the “EC50 (µM), CaSR in vitro assay” value was found to be 31 µM.

For B13, the “EC50 (µM), CaSR in vitro assay” value came out at 4.5 µM.

Turning to B14, the “EC50 (µM), CaSR in vitro assay” value was 0.58 µM.

As for B15, the “EC50 (µM), CaSR in vitro assay” value stood at 21 µM.

For B3, the “EC50 (µM), CaSR in vitro assay” value is 5.6 µM.

As to B16, the “EC50 (µM), CaSR in vitro assay” value amounted to 4.1 µM.

For the molecule B17, the “EC50 (µM), CaSR in vitro assay” value came to 21 µM.

For B18, the “EC50 (µM), CaSR in vitro assay” value is 4.6 µM.

Regarding B19, the “EC50 (µM), CaSR in vitro assay” value was 2.6 µM.

For B20, the “EC50 (µM), CaSR in vitro assay” value came out at 58 µM.

Turning to B21, the “EC50 (µM), CaSR in vitro assay” value turned out to be 2 µM.

As for B22, the “EC50 (µM), CaSR in vitro assay” value stood at 2.5 µM.

As for B23, the “EC50 (µM), CaSR in vitro assay” value worked out at 3.6 µM.

With B4, the “EC50 (µM), CaSR in vitro assay” value was 16 µM.

In the case of B24, the “EC50 (µM), CaSR in vitro assay” value was found to be 21 µM.

For the molecule B25, the “EC50 (µM), CaSR in vitro assay” value was found to be 7.8 µM.

Source of the values: patent US20130150297A1 (KAI PHARMACEUTICALS, published 2013).
